Source: patent US20260166131A1, “METHOD FOR PROMOTING PATHOLOGICAL TDP-43 PROTEIN DEGRADATION, AND DRUG” (TALENGEN INTERNATIONAL LIMITED, priority 2022, published 2026)
Entries after “also recorded” stand apart in the source; their conditions may differ.

Key:
NSC34 cells = assay: Human plasminogen level in cytoplasm and nucleus of okadaic acid-treated NSC34 cells (ELISA); conditions: plasminogen 0.5 mg/mL 24 hours, vs vehicle group
Method: The cells were placed in a carbon dioxide incubator for culture at 37.0° C. and 5% CO2. […] After adding plasminogen for 24 hours, the cells were harvested. […] The supernatant is the extracted cytoplasmic protein, and the supernatant is immediately sucked up into a pre-cooled sample tube for later use. The precipitate is the cell nucleus, and the remaining supernatant was completely aspirated (to avoid contamination by cytoplasmic proteins), then adding 50-100 μL of nuclear protein extraction reagent. The precipitate is completely dispersed by pipette blow or high-speed vortex for 15 seconds (can be extended appropriately), then ice-bathing for 10 minutes, vortexing vigorously at maximum speed for 10 seconds and centrifuging at 12,000-16,000 g for 10 minutes at 4° C. The supernatant was immediately sucked up by pipette into a pre-cooled sample tube; this is the extracted nuclear protein.

[1] = Spinal cord tissue plasminogen level in MPTP Parkinson's model mice (ELISA); type: in vivo, mouse; conditions: 50 mg/kg tail vein
TDP-43 [2] = biological target: T1, TDP-43 (Mus musculus, UniProt Q921F2); assay: TDP-43 in cytoplasm and nucleus of NSC34 cells treated with okadaic acid (Western blot); type: cell-based; set-up: host or cells: NSC34 cells; conditions: okadaic acid 2.5 ng/uL 24 h, plasminogen 0.5 mg/mL 24 hours, vs vehicle group
T1 sequence (Q921F2 whole entry): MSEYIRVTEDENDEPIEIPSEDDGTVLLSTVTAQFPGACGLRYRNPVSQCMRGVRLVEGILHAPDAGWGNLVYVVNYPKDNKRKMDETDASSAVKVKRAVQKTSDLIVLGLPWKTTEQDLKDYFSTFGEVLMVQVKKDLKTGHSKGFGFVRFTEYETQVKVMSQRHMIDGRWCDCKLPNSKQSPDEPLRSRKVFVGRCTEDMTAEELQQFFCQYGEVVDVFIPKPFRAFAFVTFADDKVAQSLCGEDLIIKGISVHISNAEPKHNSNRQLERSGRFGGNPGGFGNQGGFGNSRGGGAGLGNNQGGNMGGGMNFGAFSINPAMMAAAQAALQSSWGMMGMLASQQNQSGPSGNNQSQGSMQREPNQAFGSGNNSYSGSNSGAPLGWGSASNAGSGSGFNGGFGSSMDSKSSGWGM
Method: 10^6 NSC34 cells (Otwo Biotech, HTX1846) were inoculated in a 9 cm^2 culture dish, and cultured in DMEM medium (Gibco, 11965092) containing 10% fetal bovine serum (EVERY GREEN, 11011-8611). The cells were placed in a carbon dioxide incubator for culture at 37.0° C. and 5% CO2. After the cells grew for 48 hours and reached about 80%-90% abundance, the medium was changed, and subsequent experiments were performed. […] After adding plasminogen for 24 hours, the cells were harvested. The culture supernatant was sucked off, washing with 1×PBS, digesting with 1 mL of 0.25% pancreatic enzyme for 2-3 minutes, then stopping digestion with 5-6 mL of DMEM complete medium when the cells were obviously detached. The cells were slowly blown, and the suspension was collected into a centrifuge tube, centrifuging at 1500 rpm for 5 min to remove the supernatant, resuspending with pre-cooled 1×PBS, and counting the cells. 200 μL of plasma protein extraction reagent (the volume of a pellet of 2×10^6 cells is about 20 μL or 40 mg) (Solarbio, R0050) was added for every 20 μL of cell pellet. The cell pellet was completely dispersed into a single-cell suspension by pipette blow or high-speed vortex for 15 seconds, then ice-bathing for 10 minutes, vortexing vigorously at maximum speed for 10 seconds and centrifuging at 12,000-16,000 g for 10 minutes at 4° C. […]

TDP-43 [3] = biological target: T1, TDP-43; assay: Immunofluorescence co-localization staining of plasminogen and TDP-43 in spinal cord tissue of SOD1-G93A mice; type: in vivo; set-up: from tissue; host or cells: mouse spinal cord, gluteal muscle, brain, kidney cell nuclei; conditions: 1 mg/mouse tail vein every day
Method: Five wild-type male mice and nine male SOD1-G93A mice of similar week-age were selected. Wild-type mice served as the blank control group, and SOD1-G93A mice were observed and recorded from the time of hind leg tremor when they became ill at week 14, and the onset time of each mouse was recorded. Administering to mice 14 days after the onset of the disease. All mice were randomly divided into a vehicle group and a plasminogen group according to the onset of the disease: 5 mice in the vehicle group, which were injected with 0.1 ml of vehicle (sodium citrate buffer)/mouse by tail vein every day; 4 mice in the plasminogen group, which were injected with 1 mg of plasminogen/0.1 ml of vehicle/mouse by tail vein every day. The vehicle and plasminogen were administered continuously under SPF environment, and the samples were collected at the near-death stage. The longest administration was 61 days. The spinal cord tissue collected was fixed in formalin fixative solution. The fixed tissues were dehydrated with gradient alcohol and transparentized with xylene before being embedded in paraffin. The thickness of tissue sections was 3 μm, and the sections were dewaxed and rehydrated and then washed once. The sections were immersed in antigen retrieval working solution (0.01 M sodium citrate buffer) to perform microwave retrieval: preheating for 5 minutes, high heating for 2 minutes, and low heating for 15 minutes. The tissue was circled with a PAP pen, then incubating in 3% hydrogen peroxide for 15 minutes, and washing twice with 0.01 M PBS for 5 minutes each time, blocking with 5% normal goat serum (Vector laboratories, Inc., USA) for 30 minutes. After the time for blocking is up, the goat serum is discarded, adding anti-plasminogen antibody (self-produced), then incubating at 4° C. overnight, and washing twice with 0.01M PBS for 5 minutes each time. The goat anti-rabbit IgG (HRP) antibody (Abcam) secondary antibody was added to incubate at room temperature for 1 hour, then washing twice with 0.01M PBS for 5 minutes each time. The green fluorescence color development of the corresponding anti-plasminogen secondary antibody was performed according to the instructions of the XTSA520 IHC kit (Alpha X Biotech, AXT6202500), washing 3 times with PBS for 5 minutes each time. The above antigen retrieval and blocking procedures were repeated, and then anti-TDP-43 antibody (Proteintech, 12892-1-AP) staining was performed, then incubating at 37° C. for 1 hour, washing 3 times with PBS for 5 minutes each time. […] The red fluorescence color development of the corresponding anti-TDP-43 secondary antibody was performed according to the instructions of the XTSA620 IHC kit (Alpha X Biotech, AXT6502500), washing 3 times with PBS for 5 minutes each time. […]

B1: plasminogen: human plasminogen purified from human donor plasma, in which human Lys-plasminogen and Glu-plasminogen are >98% (protein)
chain: KVYLSECKTGNGKNYRGTMSKTKNGITCQKWSSTSPHRPRFSPATHPSEGLEENYCRNPDNDPQGPWCYTTDPEKRYDYCDILECEEECMHCSGENYDGKISKTMSGLECQAWDSQSPHAHGYIPSKFPNKNLKKNYCRNPDRELRPWCFTTDPNKRWELCDIPRCTTPPPSSGPTYQCLKGTGENYRGNVAVTVSGHTCQHWSAQTPHTHNRTPENFPCKNLDENYCRNPDGKRAPWCHTTNSQVRWEYCKIPSCDSSPVSTEQLAPTAPPELTPVVQDCYHGDGQSYRGTSSTTTTGKKCQSWSSMTPHRHQKTPENYPNAGLTMNYCRNPDADKGPWCFTTDPSVRWEYCNLKKCSGTEASVVAPPPVVLLPDVETPSEEDCMFGNGKGYRGKRATTVTGTPCQDWAAQEPHRHSIFTPETNPRAGLEKNYCRNPDGDVGGPWCYTTNPRKLYDYCDVPQCAAPSFDCGKPQVEPKKCPGRVVGGCVAHPHSWPWQVSLRTRFGMHFCGGTLISPEWVLTAAHCLEKSPRPSSYKVILGAHQEVNLEPHVQEIEVSRLFLEPTRKDIALLKLSSPAVITDKVIPACLPSPNYVVADRTECFITGWGETQGTFGAGLLKEAQLPVIENKVCNRYEFLNGRVQSTELCAGHLAGGTDSCQGDSGGPLVCFEKDKYILQGVTSWGLGCARPNKPGVYVRVSRFVTWIEGVMRNN
- level of human plasminogen in the cytoplasm (NSC34 cells): significantly higher
- level of human plasminogen in the nucleus (NSC34 cells): significantly higher
- time within which plasminogen is almost completely metabolized (spinal cord tissue) [1]: 12 to 24 h
- plasminogen level in the spinal cord tissue ([1]; vs vehicle group): significantly higher
- level of TDP-43 in the cytoplasm (TDP-43 [2]): significantly lower; also recorded: almost significantly or significantly lower
- level of TDP-43 in the nucleus (TDP-43 [2]): significantly lower; also recorded: almost significantly or significantly lower
- subcellular presence of plasminogen in spinal cord tissue (TDP-43 [3]): present in the cytoplasm (as indicated by A) and in the nucleus; also recorded: present in the cytoplasm (as indicated by Δ) and in the nucleus
- level of TDP-43 in spinal cord tissue (TDP-43 [3]; immunofluorescence, vs vehicle group): lower than that in the vehicle group; also recorded: lower than that of the vehicle group
- positive staining of plasminogen in spinal cord tissue (TDP-43 [3]; up to 61 days, vs vehicle group): significantly more
- co-localization of plasminogen and TDP-43 in spinal cord tissue (TDP-43 [3]; vs vehicle group): more than that in the vehicle group
